{"source": "a protein production outcome set (Wang et al. 2014)", "test": "label from the status in PepcDB records"}
{"sequence": "SAVSARLRTTAEDTSIAKSTQDPIGDTEISVANAKGSSDSNIKNSPGGNSVGQESELEHVPEEDDSGDKEADHEDSETATAKKRKAQPLKNPKKSLKRGRVPAPLNLSDSNTNTHGGNIKDGNLASSNSAHFPPVANQNVKSAPAQVTQHSKFQPRVQYLGKASSRQSIQVNNSSNSYGKPHMPSAGIMSAMNPYMPMNRYIMSPYYNPYGIPPPHMLNKPIMTPYVSYPYPMGPRTSIPYAMQGGNARPYEENEYSASNYRNKRVNDSYDSPLSGTASTGKTRRSEEGSRNSSVGSSANAGPTQQRADLRPADMIPAEEYHFERDALLSANTKARSASTSTSTSTSTNRDRSSWHEAEPNKDEEEGTDLAIEDGAVPTPTFTTFQRTSQPQQQSPSLLQGEIRLSSHIFAFEFPLSSSNVDKKMFMSICNKVWNESKELTKKSSSHHRTGK", "values": [{"measurement": "protein production", "result": "failed"}]}
{"sequence": "ITKRNVELRVDDSLMRVYVASPKPVGVYPGIVFYSDIYQLGSPIIRLANYLAGFGYVVAAPEIFHRLEPIGLVIEPDDLGRMRGNDNARRTAIAEYDADSRAVIDFLKAETTVNANK", "values": [{"measurement": "protein production", "result": "failed"}]}
{"sequence": "MRKRGIMSKRLLAVLCMASVTTSLFSFRGLEVKASPNVPYDQKESLAPLGEVYSIETLLNWTPESDPDAKYNRASIELQDRFMGDIVNENANPEAKIMNVALTNPYVDRAPSQGSDSMDAYVFSYWQYVNSYVYWGGSSRGIFALPTPDVVDNAHKNGVPVLATIGFPWGPGEGYVEQVRAFLQKDNNGNFPVADKMIEIAEYYGFDGYFFNQESYGCVKDDADRMVEMLEYIKKKAPNMVIGWYDSMTVDGNVKWQDALNDKNAAFFQNGENRTTDEFFLNYNWTPEKIETTVNTAKSLGRSPFDVYAGLDVQQNAYNTPFNDDYLLDENGKLRLSLAMYTPNSTFSMAKDVYDFYKHDQKFWVGPTGDPSKSDTEQDWTGLANYVPDRSAINDLPFVTNFNLGHGEDYYIDGSLSRDEEWNNRAMQEYLPTWRWIVESNGSKLTPDFDFKTAYNGGSSLKVEGKLEAANPNHIKLYSTDLNIENNSTELSIVYKTESAPNMKVGLCFGENYDEENFTFFDVNKNSNGEWTEVKIPLGDHVGKTISAISLKFESGQDVENFKINVGQISIEETAENNKGLKNSDVILEETMVHNSNSAEARIYWNGLESGNEDDLAFYEIYRIKPDGSRELMGATPNDAYYVQEFERYGEEMEFDIEVVPVDVNYNRGEGKRVTFNWGIPHDATQIPDKKVYENLALYKSVQTSAEGAAEPGLKAVDGKVDNNSKWCAAGAKDGWLTIDLGEPKNIQRWVVKHAEAGGEAKDMNTKDFALEVSYDGGQTYQEVDVVTGNEDAITDRNLENPIVAQHLRLRIDNSGSSPWAAIRIYEFQLYEETFTDQTTEIPMRFVNAKNNKGANDSVLFTRGKEGQTVNLYKGLNDETPFATATIDSNGEAKFEGLDFGEDGGRVYYGTVEEGKRESLRMSAAFEGENWEYSKVPERFELTPYKAPGMNGENHNYGTLKINDLEAGDIVSIFNDKDSIFPEKVSVPVAKGGDTAILDRISINPEGGVLTLEVKSEGKKARRIEVPYSGFGEIEMKIESEAPTNLRTVDVQKKSVSLAWDSPENTYGLEGYIIYKDNKKVGEVSADETEFTVGKLNRHTIYNFKVAAKYSNGEISKRDTITVRTAR", "values": [{"measurement": "protein production", "result": "failed"}]}
{"sequence": "MEEASEGGGNDRVRNLQSEVEGVKNIMTQNVERILARGENLEHLRNKTEDLEATSEHFKTTSQKVARKFWWKNVKMIVLICVIVFIIILFIVLFATGAFS", "values": [{"measurement": "protein production", "result": "failed"}]}
{"sequence": "KAKPVATAPIPGTPWCVVWTGDERVFFYNPTTRLSMWDRPDDLIGRADVDKIIQEPPHKK", "values": [{"measurement": "protein production", "result": "not failed"}]}
{"sequence": "MHQQGIRMEGMSDLNALNLEPGEVVGGYTLISRLGSGAMGSVWRVRDDGGTTYAMKILRDSLADESVAGSGSASAALHDPDLKPDVTPRERLRREAMALKKVNHPGVCGIVDMELDDTLAFIVTELIEGKNLKDDVAANGRYVGDDLERLARKLIDATKAVHAAGIVHRDIKPTNVMVSAAGPVLVDFGIAMGEGESHVTRTGLVMGTPGFIAPEIIDGAESDEATDWWSVASVLAFAATGAPVFGTKPMMAVLEREASGNANLSGLPAGTLAAFRSALDPDRTKRCTPDQLLNAIALDALNPAVWQGAQAGPFAAGAIAGGANTIAPAAGTAGETEAVPPFGAAGHVDRNNPRTIWRATDEAAQALTDEATTTLPDSAAPAISDEATVQLAGATVPLTEATTPLTSEATTPLTPVTGEPLLAPTTPLAERTAVLPSPQPTAFPPTPPVQLVGGMAQNGWNPAAADVQATVVDPNIRPALQRVIDQTAQFAPTEALVQQPLAPNPADVKRGEYLQRGVFPLLLLALPLAVLAASMPLIALLAAAAMLWLLLTLAYNTEPQLEREGRRGGERKSSDTWIRAATLPWHIVKALLLSLPRMVLLIVIAIAGTAAATMALALPTQTVYWYFTPERGVPIPLLNDVPLSASGLALGGFMAIGWLVTVFGPQAMMARLGAGVLRGLNPRQAQSPMPLAYDGSPAVPSPAAMAPASATRGKRSTMLFTIWIIVTLALCTLPLTGMAIDWTPLV", "values": [{"measurement": "protein production", "result": "failed"}]}
{"sequence": "MSIYMIGLIRHSETKVFNKALIQGSLIAYIVFMLFAWGGEAIFSKYLNVRFEAFQIFGGLIFLVIGYRYVFQGADTIGEMRGAPEHLAGTIAMPFMIGPGTISAAVVTGIEMSIGAAALVIGFTMFLTCSILILMKFSHDHLRYKHAKYIDRYFDIVGRLSALLIGTIAVDMIINGVTGLIHKV", "values": [{"measurement": "protein production", "result": "failed"}]}
{"sequence": "MTTPTPTPTPTSQSLAAPFAQGVEGVYFDGRSSRDRAATLRVLGSGDLSSGAPLAVLRVAPTDGEPGSEQQWPLRQVQFDPPLAGVRRVVKLPDGGRFETNDDRAITALEAAVGRNRGLRGVRRLESDWGLTLGAVVTLGLFVWGFLTYGLPAMARSAAAATPRSVLTSFDTSAIEVLDNGTFMGPTHLSAARQAQLQREFKDVAQWAGGGYPYRLLLRDGTPQANGDKDSPAPSGSIGTNAFALPGGTVVMTEQLVKLAHSDRELMGVLAHETGHVTHRHSLSSIYQGLGLTLLTTAVTGDLIGASTFAAAVPTWLLKNGYSRQSETQSDEVAGRFLMERYGTTKPLRDVLARLETEDENADENSVKRDDPGAFLQTHPGTAERIRHLREIEQNWPQRRGK", "values": [{"measurement": "protein production", "result": "failed"}]}
{"sequence": "MTTDAPALLPALQARVRETAHARTPAGCPCGAATLADRPDATVVRHAGTVAKAHAADADPAELSLRVTAAARLPGVLLPPLAPAPVDLHGRLVTYWPYGTPVDPEDPDAAPWEAAATLLARLHRTPVPAALPPMRGPAKAARAAARLSDTARDHPATAPVLAAWAALPAWARGEAAMPGPAALCHGDLHLGQLIRHPAPDGPWLLIDVDDLGTGVPAWDLARPAAWYACGLLPPEEWHRFLTAYRAAGGPAVPAEGDPWPALDVPARALTAQTAARAVAKAVLAGRALDEVERSLVDACARMASVRPADPRG", "values": [{"measurement": "protein production", "result": "failed"}]}
{"sequence": "MKRKMLKRLLTSAFACMFIANGLITTTVRAVGPKTGEENQVLVPNLNPTPENLEVVGDGFKITSSINLVGEEEADENAVNALREFLTANNIEINSENDPNSTTLIIGEVDDDIPELDEALNGTTAENLKEEGYALVSNDGKIAIEGKDGDGTFYGVQTFKQLVKESNIPEVNITDYPTVSARGIVEGFYGTPWTHKDRLDQIKFYGENKLNTYIYAPKDDPYHREKWREPYPENEMQRMQELIDASAENKVDFVFGISPGIDIRFDGEAGEEDFNHLIAKAESLYDMGVRSFAIYWDDIQDKSAAKHAQVLNRFNEEFVKAKGDVKPLITVPTEYDTGAMVSNGQPRTYTRIFAETVDPSIEVMWTGPGVVTNEIPLSDAQLISGIYNRNMAVWWNYPVTDYFKGKLALGPMHGLDKGLNQYVDFFTVNPMEHAELSKISIHTAADYSWNMDNYDYDKAWNRAIDMLYGDLAEDMKVFANHSTRMDNKTWAKSGREDAPELRAKMDELWNKLSSKEDASALIEELYGEFARMEEACNNLKANLPEVALEECSRQLDELITLAQGDKASLDMIVAQLNEDTEAYESAKEIAQNKLNTALSSFAVISEKVAQSFIQEALSFDLTLINPRTVKITASSEETSGENAPASFASDGDMNTFWHSKWSSPAHEGPHHLTLELDNVYEINKVKYAPRQDSKNGRITGYKVSVSLDGENFTEVKTGTLEDNAAIKFIEFDSVDAKYVRLDVTDSVSDQANGRGKFATAAEVNVHGKLKEAAEVTGSVSLEALEEVQVGENIEVGVGIDELVNAEAFAYDFTLNYDENAFEYVEAISDDGVFVNAKKIEDGKVRVLVSSLTGEPLPAKEVLAKVVLRAEAKTEGSNLSVTNSSVGDGEGLVHEIAGTEKTVNIIEGTSPEIVVNPVRDFKASEINKKNVTVTWTEPETTEGLEGYILYKDGKKVAEIGKDETSYTFKKLNRHTIYNFKIAAKYSNGEVSSKESLTLRTAR", "values": [{"measurement": "protein production", "result": "failed"}]}
{"sequence": "MGYLIGGDIISSSPFTKIFYGSCRKIAVFIFSVLSLTIISGILMYFIEGETGGFTSPSLSIYWAIATLLTVGYGDVVLQTSVGRAMASFVSVLGLSIIVVPIFIVIAEIFGLLSRTFSW", "values": [{"measurement": "protein production", "result": "failed"}]}
